Results reported in patent US20260365759 (published 2026).

T1: Pepsinogen C (PGC) (human)
T1 chain: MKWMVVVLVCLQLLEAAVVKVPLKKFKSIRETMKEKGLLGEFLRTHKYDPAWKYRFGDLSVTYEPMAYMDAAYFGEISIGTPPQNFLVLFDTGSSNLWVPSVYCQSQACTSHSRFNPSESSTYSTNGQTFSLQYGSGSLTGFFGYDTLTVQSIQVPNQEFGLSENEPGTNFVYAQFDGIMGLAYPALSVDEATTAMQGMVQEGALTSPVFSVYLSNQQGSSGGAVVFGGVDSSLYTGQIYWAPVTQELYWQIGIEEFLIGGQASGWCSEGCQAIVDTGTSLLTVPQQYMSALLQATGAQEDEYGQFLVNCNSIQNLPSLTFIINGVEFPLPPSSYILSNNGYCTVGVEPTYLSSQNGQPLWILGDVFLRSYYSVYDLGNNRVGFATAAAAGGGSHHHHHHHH

B1: mAb 11 (antibody, V domains shown)
VH: QVQLQQPGTELVKPGASVKLSCKASGYTFTNYWMHWVKQRPGQGLEWIGNINPFNGATNYNDNFKTKATLTVDKSSSTAYMHLSSLTSEDSAVYYCARYDYSKYYAMDYWGQGTSVTVSS
VL: ENVLTQSPAIMAASPGDKVTMTCSASSSINSAHFHWYQQKPGTSPKLWIYRTSNLASGVPARFSGRGSGTSYSLTISSMEAADAATYYCQQWSDYPWTFGGGTKLEIR
B2: mAb 27 (antibody, V domains shown)
VH: QIQLVQSGPELKKPGETVKISCKASGYTFTNYGMNWVKQAPGKGLKWIGWINTYTGDPTYADDFKGRFAFSLETSASNGYLQIDNLKKEDTATYFCARRDIFAMDYWGQGTSVTVSS
VL: DIQMTQTTSSLSASLGDRVTITCRASQDIMKYLHWYQQKPDGTIKLLFYYTSRLHSGVPSRFSGSGSGTDYSLTISNLEQEDIATYFCQQDVKYPWTFGGGTKLEIK
B3: mAb 123 (antibody, V domains shown)
VH: QIQLVQSGPELKKPGETVKISCKGSGYTFTNYGMNWVKQAPGKGLKWMGWINTYTGDPTYADDFKGRIAFSLETSASTAYLQIDNLKNEDTATYFCARRDIFAMDYWGQGTSVTVSS
VL: DIQMTQTTSSLSASLGDRVTITCRASQDIMKYLHWYQQKPDGTVKLLIYYTSRLHSGVPSRFSGSGSGTDYSLTISNLEQEDIATYFCQQDIKYPWTFGGGTKLEIK
B4: mAb 22 (antibody, V domains shown)
VH: QIQLVQSGPELKKPGETVKISCKASGYTFTNYGMNWVKQAPGKGLKWIGWINTYTGDPTYADDFKGRFAFSLETSASNGYLQIDNLKKEDTATYFCARRDIFAMDYWGQGTSVTVSS
VL: DIQMTQTTSSLSASLGDRVTITCRASQDIMKYLHWYQQKPDGTIKLLIYYTSRLHSGVPSRFSGSGSGTDYSLTISNLEQEDIATYFCQQDVKYPWTFGGGTKLEIK
B5: mAb 75 (antibody, V domains shown)
VH: QIQLVQSGPELKKPGETVKISCKASGYTFTNYGMNWVKQAPGKGLKWMGLINTYTRGPTFADDFKGRFAFSVETSANTAYLQINNLKTEDTATYFCARRGEYYGSSYVDYWGQGTTLTVSS
VL: DIQMTQITSSLSASLGDRVTISCRASQDIMHFLNWYQQKPDGTVKLLIYYTSRLHSGVPSRFSGSGSGTDYSLTITNLEPEDIATYYCQQHSNLPPTFGGGTKLEIK

Target: T1, Pepsinogen C (PGC)
Experiment: SPR, 37C, order of magnitude only
With B1 the Kd was ~0.1 nM. With B2 the Kd was ~0.1 nM. B3 showed a Kd of ~0.1 nM. In the case of B4, the Kd is reported as ~0.01 nM. B5 gave a Kd of ~0.1 nM.
